This note sets out measurements from PMC5971202.

Assay in all cases: EMSA
Data set [1] has as its target T1, rDDX1-K52A (human, UniProt Q92499 1-728, K52A).
T1 sequence: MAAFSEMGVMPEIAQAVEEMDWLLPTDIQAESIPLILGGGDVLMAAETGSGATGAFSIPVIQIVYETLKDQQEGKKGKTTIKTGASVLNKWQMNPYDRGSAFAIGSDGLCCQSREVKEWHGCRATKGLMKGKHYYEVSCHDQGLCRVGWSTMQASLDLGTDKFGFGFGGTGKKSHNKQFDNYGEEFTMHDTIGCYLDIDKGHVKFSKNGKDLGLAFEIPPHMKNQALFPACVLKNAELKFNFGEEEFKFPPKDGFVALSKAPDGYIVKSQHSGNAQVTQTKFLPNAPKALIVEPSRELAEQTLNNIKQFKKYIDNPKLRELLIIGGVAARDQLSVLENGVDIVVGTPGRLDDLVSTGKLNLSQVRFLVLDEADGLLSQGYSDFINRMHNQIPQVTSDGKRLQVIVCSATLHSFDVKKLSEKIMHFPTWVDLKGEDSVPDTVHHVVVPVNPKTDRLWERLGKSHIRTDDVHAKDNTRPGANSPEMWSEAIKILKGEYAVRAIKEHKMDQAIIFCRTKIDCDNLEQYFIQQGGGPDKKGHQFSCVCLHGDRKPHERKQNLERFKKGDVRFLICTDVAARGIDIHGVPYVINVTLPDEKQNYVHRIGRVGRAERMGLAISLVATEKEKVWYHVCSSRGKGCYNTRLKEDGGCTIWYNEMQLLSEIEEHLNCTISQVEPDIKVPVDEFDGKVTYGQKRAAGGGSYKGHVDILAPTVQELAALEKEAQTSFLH

The target in data set [2] is T2, rDDX1 (WT) (human, UniProt Q92499 1-728).
T2 sequence: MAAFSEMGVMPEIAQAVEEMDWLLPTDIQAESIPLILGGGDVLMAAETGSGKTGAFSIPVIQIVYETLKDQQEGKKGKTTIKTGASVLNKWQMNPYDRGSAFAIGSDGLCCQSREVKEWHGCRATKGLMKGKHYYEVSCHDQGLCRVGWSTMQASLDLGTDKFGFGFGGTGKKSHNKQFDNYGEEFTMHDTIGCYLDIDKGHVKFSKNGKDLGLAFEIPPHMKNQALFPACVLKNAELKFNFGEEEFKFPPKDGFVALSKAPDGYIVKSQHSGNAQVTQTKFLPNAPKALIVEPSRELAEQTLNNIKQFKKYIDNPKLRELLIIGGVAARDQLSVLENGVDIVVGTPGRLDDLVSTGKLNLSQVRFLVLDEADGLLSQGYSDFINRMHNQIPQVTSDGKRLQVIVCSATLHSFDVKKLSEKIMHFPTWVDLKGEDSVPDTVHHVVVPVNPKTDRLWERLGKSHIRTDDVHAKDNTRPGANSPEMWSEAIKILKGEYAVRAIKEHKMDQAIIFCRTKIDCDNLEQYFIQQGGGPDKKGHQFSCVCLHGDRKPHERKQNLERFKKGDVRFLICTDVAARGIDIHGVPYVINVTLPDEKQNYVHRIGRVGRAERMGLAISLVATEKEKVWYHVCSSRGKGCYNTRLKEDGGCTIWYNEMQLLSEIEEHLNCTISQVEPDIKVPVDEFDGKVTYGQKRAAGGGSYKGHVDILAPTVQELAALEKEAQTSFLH

The target of data set [3] is T1, rDDX1-K52A. This is another data set of the same source.
Data set [4] addresses T2, rDDX1 (WT). This is another data set of the same source.

Like-named read-outs stand apart in the source and are kept apart here.

B1: Single-stranded DNA (ssDNA)
DNA: ATCGGAATGTATGAGAATAGAAGAGATAATGAATAATAGAA
Take B1: the binding result with rDDX1-K52A [1] and with rDDX1 (WT) [2] was “no binding” each time.

B2: Sμ4G RNA 32P (structured_RNA)
RNA: GAGCUGGGGUGAGCUGGGGUGAGCUGGGGUGAGCUGGGGU
With B2, the binding result with rDDX1-K52A [3] and with rDDX1 (WT) [4] was “binds” each time.

B3: Sμ4Gmut RNA 32P (ssRNA)
RNA: GAGCUGCGCUGAGCUGCGCUGAGCUGCGCUGAGCUGCGCU
As to B3, in the data set with rDDX1 (WT) [4], the binding result is listed as “no binding”.
